The results in this text go back to patent US20240025971A1.

This assay addresses SARS-CoV-2 Wuhan D614G full-length Spike protein (SARS-CoV-2) (UniProt P0DTC2). Description: cell-based or functional assay.

Some results are limits rather than exact numbers.

In turn, “Anti-Nucleocapsid (Neg Control) (antibody)” returned a Pseudovirus Neutralization above 50 µg/mL.
